Measured values taken from publication PMC11098746 (2024).

How the values were obtained:
Assay in all cases: AVEXIS screen signal:noise (double-corrected)
ADP339 = molecular target: T1, ADP339
T1 chain: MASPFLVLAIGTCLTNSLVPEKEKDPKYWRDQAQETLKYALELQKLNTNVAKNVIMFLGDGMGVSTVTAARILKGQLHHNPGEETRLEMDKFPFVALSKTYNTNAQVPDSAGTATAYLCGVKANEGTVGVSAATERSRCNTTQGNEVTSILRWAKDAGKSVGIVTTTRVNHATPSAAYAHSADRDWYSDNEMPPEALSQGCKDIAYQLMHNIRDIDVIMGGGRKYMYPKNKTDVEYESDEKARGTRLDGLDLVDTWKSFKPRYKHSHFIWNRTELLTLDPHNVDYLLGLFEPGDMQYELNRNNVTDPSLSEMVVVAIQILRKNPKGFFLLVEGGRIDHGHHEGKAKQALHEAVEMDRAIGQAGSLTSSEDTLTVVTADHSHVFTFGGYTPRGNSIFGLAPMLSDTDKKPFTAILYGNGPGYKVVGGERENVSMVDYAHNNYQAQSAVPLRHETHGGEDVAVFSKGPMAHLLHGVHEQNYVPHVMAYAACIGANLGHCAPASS

ADP389 = molecular target: T2, ADP389
T2 chain: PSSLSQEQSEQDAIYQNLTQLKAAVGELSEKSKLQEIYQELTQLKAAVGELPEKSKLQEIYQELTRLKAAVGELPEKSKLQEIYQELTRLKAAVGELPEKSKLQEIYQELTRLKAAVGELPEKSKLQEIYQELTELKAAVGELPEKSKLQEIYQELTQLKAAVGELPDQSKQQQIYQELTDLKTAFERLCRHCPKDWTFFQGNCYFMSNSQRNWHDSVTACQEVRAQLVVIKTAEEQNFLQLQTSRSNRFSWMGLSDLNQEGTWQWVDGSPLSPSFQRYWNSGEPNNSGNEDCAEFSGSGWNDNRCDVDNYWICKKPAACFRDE

ADP098 = molecular target: T3, ADP098
T3 chain: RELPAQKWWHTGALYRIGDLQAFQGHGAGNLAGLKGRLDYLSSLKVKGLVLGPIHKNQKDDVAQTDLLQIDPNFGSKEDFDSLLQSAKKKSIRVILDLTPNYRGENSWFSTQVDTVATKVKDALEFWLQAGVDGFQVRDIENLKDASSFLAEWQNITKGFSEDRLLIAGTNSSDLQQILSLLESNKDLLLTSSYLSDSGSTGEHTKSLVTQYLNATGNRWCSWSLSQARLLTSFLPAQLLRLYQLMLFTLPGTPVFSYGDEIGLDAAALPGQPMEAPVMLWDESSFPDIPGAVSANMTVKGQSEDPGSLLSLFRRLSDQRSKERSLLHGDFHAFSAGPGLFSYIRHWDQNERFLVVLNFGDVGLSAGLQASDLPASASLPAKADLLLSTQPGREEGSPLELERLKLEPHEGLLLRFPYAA

ADP269 = molecular target: T4, ADP269
T4 chain: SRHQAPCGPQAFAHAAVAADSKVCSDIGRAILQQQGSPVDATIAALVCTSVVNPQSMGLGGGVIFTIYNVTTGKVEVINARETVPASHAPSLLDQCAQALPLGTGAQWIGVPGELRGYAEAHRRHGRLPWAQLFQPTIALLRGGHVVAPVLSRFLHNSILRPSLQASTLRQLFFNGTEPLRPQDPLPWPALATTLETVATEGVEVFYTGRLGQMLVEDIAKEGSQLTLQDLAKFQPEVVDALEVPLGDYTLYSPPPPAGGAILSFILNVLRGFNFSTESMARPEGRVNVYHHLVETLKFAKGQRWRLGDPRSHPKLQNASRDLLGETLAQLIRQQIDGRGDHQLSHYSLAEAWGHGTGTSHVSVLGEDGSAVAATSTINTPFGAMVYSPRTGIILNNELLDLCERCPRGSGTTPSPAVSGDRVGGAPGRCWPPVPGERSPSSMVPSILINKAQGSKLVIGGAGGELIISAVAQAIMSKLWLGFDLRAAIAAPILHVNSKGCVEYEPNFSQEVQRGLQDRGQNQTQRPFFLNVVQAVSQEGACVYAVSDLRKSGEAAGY

B1: ADP246 (protein)
chain: GLCKPCTLENHYCEGGLESDITFNNKLIKGKFHTLPKKCPRGLGIPNIIKERNSINNCLCIHGKVQRTTENKNVECFPCPPNTFKENEYDNSCSGACPPFSTTFVGSSYENQCFCKNNYYLVSTDDENDANGNSINNNKNIYNNNNIYNNNNNNNNNNNNNFNNKADVKKKSCKICPIGAICNRGFNIYIYLKLLNDRSYNNINVIDHETPFPKYGYYAVYREKTNPAKSWDTLDDSAILNYVYPYHKLLLFIQKNIQKGNYFFLEKGNKFFLNDDFVEKMNEKSKYEEENANKFVTKSEIIHNVNTNNLKGKHNTLNNNNNNNNINKASSFLNQNNYNNDIIQLSSYENNPFKNLASTSEVSSNNNVISFIQNNDKTNNAANDNNIENLVDIFNKYVQEAKELQIQNRKFERIPDIHPCTIPNRCLGTLINLCSDGSTGYQCNNCAKNYDMSYFKSKCKKCQNLFYE
modifications: bait human Fc-tagged dimer; N-glycosylation sequons mutated in Plasmodium baits
- binding score (ADP339): 15.5

B2: ADP236 (protein)
chain: EFVKGSYESKGYPLIHLMNNNEYTGSANNFIKNNLINLLYIYKDVKFDEEKTLGIDSFLDIEDDTKIERLIKEKMLYINKYINSRQMIKYSGFIYLYEIIEKKNFYFLLHFLMTNNNNGLIIILPEDMYINVDEYYRINKINKLNDQNKKNKVVSQDLLEKRIMFVQSLILNMKLQQSIYFIKNNKDIEKIYENYQSKFAYFDLTRNVAISPISKIQNVYKMNSKSLYYFLNKNNNIHINTIFNKQQDNQAFLLTKQKTIIICADFNVFNIFSDLPSNTAFTNSNLITIQNLIKLFYDVYNKEQVNYNILFFFTNYYYGIQDFLNSINVIFKENIEFVICLDNLNNADFYIYESNKAQPQNVQAFYRILNNIVKGSIKKNVQMVNEKIKIHSKHLPSLHEYFVLNKINSFSLSSSKKNNNMIFLNKFPMLQPKLNIQNVKNNIAIIFKSLYLYMTQKKTDQKENTQQEQSIEKNEKEKSMLTYINKNMASNDDMNTIDYNLNKYNKFFIYKEDTLKLFNYFKTIINSNIADTNFLIKDYKLTTDKKQKFFYQKYAHVTFSMAISYVFH
modifications: bait human Fc-tagged dimer; N-glycosylation sequons mutated in Plasmodium baits
- binding score (ADP389): 5.5

B3: ADP169 (protein)
chain: LIRNSNTPQAFLIPELNNNEKNEFNNNEKNEMNNNLNNEFNNNEENCDIQKIAEEMMENLLNENDMYTNIMLSLQNRLSDDYLCSEPKYENICIHEKDKISLSFPCSNPKYEKLIHKFTFKKLCNSKAAFNNALLKSFIEEDEEQNTFSLMLKQFKILLTCVDDELKDIYKESIDLLVDLKTSITELTQKLWSGKMVNVLKKREFLITGILCELRNGNKAPLISKSLEFENLGILKMNNEELLNEAYNAFSDYYYFFPYFIQKLLEKGGMIERLIKIHENLAKYRTKDMVNKINAQSKGEVLNNEDILNKLNAYKHYTKHGATSFIQSREVKIVNQNVNNDDTTKNQQQNVNNNEKLNNNNNNNNNQQVNNNNNNNNQQVNNNNNNNNNQVNNNNNNNNNQVNNNNYNNNNQVNNNNNNNQQVNNNNNYNNQLNNNNFNNNLQVNKNDKHVPKNNHATATHTNNILYNPLYSINPEKPKDIIKLLKDLIKYLHIVKFENNEPTTNIDEEGIRKLLENSFFDLNDDILIVRLLLKPQTVILTVIQSFMLMTPSPSRDAKAYCKKALINDQLVPTNDANILSEENELVNNFATKYVLIYEKMKLQELKEMEESKLKMKYSKTNLAALQVTNPQNNKDKNDASNKNNNPNNAATPLIAVVTDLSGEKTEDIINNNVDIATLSVGVQNTFQGP
modifications: bait human Fc-tagged dimer; N-glycosylation sequons mutated in Plasmodium baits
- binding score (ADP098): 11.2

B4: ADP191 (protein)
chain: IYYCNDNILENANNDDSTKDINNINKNSANKAKSEKTSNYNNDQYNIDDAYNEDEENDEEEGDDDENDHFEVPINCAGGNCFDSMDDINKIIDNKKKKMKYRRRRGKAIQIIKPNVNHAELIIIEENLEIFKRIDKPIAIVSVLGDMHTGKSFLLNLLNEHVIPDINKANKYIENGFKVGNDITASTYGIWIWSEPIRINVKKLKKIYEYINENFANFIKSYEYEKDEYNEEIIDLLNLYKTDDWISNVEELNLADTDEVNLILMDTQGLNSPNVNKRYDEILYALTNLISTDIIFLTMKMINNKDLEFIENIAKDANLFMLRAYTRSSGSTFSIKKNNFHKILDTLNNNLENNALILESIASKNLMWVVHDFSQRLDVRKGKLWLDILLNSDRRDLDIKYWKKIISNKAKDKHDAYTTKKQKIAYLTYNENSASGLLPNNNNNNNNANDASSNYKLNILYKNIDCVLLRNMYHNKEFDFTKANINDLNEEYKNDVLLLRYKIYLRALLFPKKMYSDVQINNIINKIRKEQKLREEQEKNKDNKKNDANNQANDLNSNKDETSGSQVTNRFMSGHDVYDFITFLVKSANQNLFTNVNQFFKHFKINRAEISRNDLIFLYKKYLLQFMENEDVEFISNLNDENDDLFLQKEGNNAAVNHDENSDADSLFNDHDENMQLKEHNIKDGEDNTHQKKDSYKLPPLLNEIKKYEELIREQILNIWYKYTESDFHDEEEKELIKDIENNLYERLDQIKIEMLELGEMNIRKFCKIACEDALQIVVEDIKMKSDQYPIKQKDLTTFFESVSYNLIKYLEKKLSKNSDKLDLIYYKDNICSPLINNAFQEFYFLKKKNIALNENRLKSYFSNAVEKGKEVFEVLAENTENIAEYFKNKNMFYTVLDKWTSEAINTYTLTLSDFAKEEKEINDEYLNVLNNDIKLLKQKAMEKWHNHCRDKTSALYNMHKSNLKKNFLENFNFPLDELVLQDIFLNLKGQEELKYMDIYCANEDSWNSEYKNFLKLTDEIFQFIKDENLKAIQITCQQPLDELKNGIKGEIHKYYLWSSLKSTLYNRALIVLSSNIENIYIKNQRENKIQSNLDEKYNNKNKNYKRISKDLMSKVINRWLNNDIYNVYYP
modifications: bait human Fc-tagged dimer; N-glycosylation sequons mutated in Plasmodium baits
- binding score (ADP269): 9.74
